To fix the notation:
B1: bcl222 (peptide)
peptide: SLALVGACI
notes: The end of the range is worked out from the printed start and the peptide length
B2: bcl80 (peptide)
peptide: AAAGPALSPV
notes: as for B1
B3: bcl180 (peptide)
peptide: YLNRHLHTWI
notes: as for B1
B4: bcl214 (peptide)
peptide: WLSLKTLLSL
notes: as for B1
B5: bcl220 (peptide)
peptide: LLSLALVGA
notes: as for B1
B6: bcl172 (peptide)
peptide: NIALWMTEYL
notes: as for B1
B7: bcl208 (peptide)
peptide: PLFDFSWLSL
notes: as for B1
B8: bcl124 (peptide)
peptide: FTARGRFATV
notes: as for B1
B9: Bcl85 (peptide)
peptide: ALSPVPPVV
notes: as for B1
B10: bcl218 (peptide)
peptide: KTLLSLALV
notes: as for B1
B11: Bcl224 (peptide)
peptide: ALVGACITL
notes: as for B1

C50 data for eleven molecules are collected here from patent US20080050396A1 (SURVAC, published 2008).

The target in this test is HLA-A2 (human). Briefly: assembly assay: peptide stabilisation of HLA-A2 from T2 lysate, W6/32 immunoprecipitation.
The molecule B1 had a C50 of 1 µM.

With B2, the C50 was 36 µM.

In turn, B3 had a C50 of 15 µM.

In turn, B4 gave a C50 of 3 µM.

Take B5: the C50 worked out at 1 µM.

On to B6, for which the C50 is 2 µM.

B7: the C50 turned out to be 7 µM.

Molecule B8 yielded a C50 of 1 µM.

The molecule B9 had a C50 of 1 µM.

For the molecule B10, the C50 is 2 µM.

The molecule B11 displayed a C50 of 0.7 µM.
